For experiment [1], the target named is T1, NTSR1 ECL2 peptide (Homo sapiens, UniProt P30989). Briefly: Surface plasmon resonance with immobilized ECL2 peptide. The note with it: SPR, 1:1 binding model. On the procedure: The interaction of NTSR1-specific mAbs with extracellular loop 2 (ECL2) peptides of NTSR1 was measured by surface plasmon resonance using an Open SPR (Nicoya, Canada) instrument. Biotin-conjugated ECL2 peptides were immobilized on a streptavidin-coated sensor chip by injecting the peptides diluted in HBS-EP5 buffer saline (20 mM HEPES, 250 mM NaCl, 3 mM EDTA, 0.05% Tween 20 and 0.5% BSA, pH 7.4) at a concentration of 10 μg/ml at a flow rate of 30 μl/min. For kinetic experiments, NTSR1-specific mAbs diluted in HBS-EP5 at concentrations ranging from 24 to 1.5 nM were injected at a flow rate of 30 μl/min over the immobilized ECL2 peptides. Binding of the NTSR1-specific mAbs at different concentrations to the immobilized ECL2 peptides were analyzed using the TraceDrawer software (Nicoya, Canada). Association rate (ka), dissociation rate (kd), and affinity (KD) were calculated using global analysis, fitting the data to a simple 1:1 binding model.
Target sequence in this assay (P30989 206-234 limits assumed): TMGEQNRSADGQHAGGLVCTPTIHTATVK
Background: Surface plasmon resonance follows binding to a sensor surface in real time, without labels.

The next experiment deals with A549 cells. Put plainly: Internalization of NTSR-1 antibody (flow cytometry). The format is cell-based. The note with it: A549, 10 μg/ml. The procedure: NTSR-1 antibody was used for flow cytometry analysis to compare the NTSR1 expression level in different lung and HCC cell lines, including A549, H1299, HA22T and Mahlavu. A total of 1×10^6 cells were reacted with the h7C3-3 antibody in FACS buffer for 60 minutes at 4° C. and washed two times to remove excess antibody. Cells were then transferred to 4° C. or 37° C. for 0, 0.5, 2, 5, 24 hours and followed by an additional incubation with secondary anti-human IgG Fc-PE (BioLegend) antibody for 60 minutes at 4° C. Cells were washed again, and data were collected by BD LSRFortessa. Fluorescence intensity from channel FL-1 was calculated with Flow Jo flow cytometry analysis software.
A general note: Flow cytometry measures light scatter and fluorescence of single cells or particles in a stream.

The next experiment has as its target T2, NTSR1 on A549 cells (Homo sapiens, UniProt P30989).
T2 construct: endogenous in cells; host or cells: A549 (NSCLC)
Put plainly: Flow cytometry (FACS) binding of anti-NTSR1 antibodies on A549 cells. On the procedure:
A total of 1×10^6 cells were reacted with an anti-NTSR1 antibody in 100 μL of FACS buffer (PBS containing 0.5% BSA) for 60 minutes at 4° C. and washed two times to remove excess antibody. Secondary FITC (BD Pharmingen™) conjugated mouse anti-human IgG antibodies were incubated for an additional 60 minutes on ice. Cells were washed again and followed by an additional incubation with 1 ml PBS containing 0.5 mg/mL propidium iodide at 4° C. for 10 minutes. Data were collected on 10,000 living cells by FACS (Bio-Red S3e cell sorter). Fluorescence intensity from channel FL-1 was calculated with Flow Jo flow […] cytometry analysis software.

The target of a further experiment is T3, NTSR1 (Homo sapiens, UniProt P30989).
T3 construct: Solid tumors were excised from PC-3 xenograft mice without treatment, followed by immunohistochemistry staining using antibodies specific for NTSR1; from tissue; host or cells: PC-3 prostate cancer xenograft tumour grown in mice
T3 sequence (P30989 whole entry): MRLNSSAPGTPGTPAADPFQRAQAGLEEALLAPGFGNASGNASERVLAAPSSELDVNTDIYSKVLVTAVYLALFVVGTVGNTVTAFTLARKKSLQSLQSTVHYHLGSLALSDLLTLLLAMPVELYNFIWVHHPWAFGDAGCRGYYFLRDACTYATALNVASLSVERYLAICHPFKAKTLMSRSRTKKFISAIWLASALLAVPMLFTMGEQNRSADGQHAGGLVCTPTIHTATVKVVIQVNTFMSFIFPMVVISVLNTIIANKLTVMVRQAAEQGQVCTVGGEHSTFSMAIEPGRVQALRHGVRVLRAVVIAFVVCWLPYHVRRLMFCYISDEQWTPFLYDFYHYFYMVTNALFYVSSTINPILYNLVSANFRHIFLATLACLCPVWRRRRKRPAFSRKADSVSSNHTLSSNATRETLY
Briefly: Immunohistochemistry staining of PC-3 xenograft tumor tissue. The note with it: 2 μg/ml antibody. The procedure:
Deparaffinized tissue sections (4 μm) were subjected to heat-induced epitope retrieval in Tris-EDTA buffer (pH 9) at 95° C. for 30 minutes. The sections were blocked with inhibitor CM at 37° C. for 4 minutes. The slides were incubated with primary antibody including 2 μg/ml anti-NTSR1-B12 (SC-376958, Santa Cruz Biotechnology) and different […] antibody clones (7C3, h7C3-2 and h7C3-3) for 1 hour. The slides were then incubated with appropriate secondary antibodies; OmniMap anti-mouse-HRP for anti-NTSR1-B12 and anti-human-HRP for 7C3, h7C3-2 and h7C3-3 at RT for 30 minutes. The staining was performed with diamino-benzidine tetrahydrochloride.

The target in experiment [2] is T1, NTSR1 ECL2 peptide. Put plainly: Kon (M^-1s^-1). On the procedure: (§1) Table printed on a drawing sheet, FIG. 2
Head of the field: Kon (M^-1s^-1)
(§2) The patent's description of the figure: FIG. 2 is a graph showing affinity and kinetics data of h7C3-3. The binding affinity between h7C3-3 and NTSR1 ECL2 peptide was determined by surface plasmon resonance (SPR).
(§3) First copying reader's note: Table stands under the sensorgram plot headed h7C3-3 inside the same frame.
(§4) Where the first naming reader finds the target: description_of_the_figure: The binding affinity between h7C3-3 and NTSR1 ECL2 peptide was determined by surface plasmon resonance (SPR).

The subject of a further experiment is A549. Put plainly: In vitro cell cytotoxicity assay (CellTiter-Glo). The format is cell-based. The procedure:
(§5) The number of living cells were determined using the CellTiter-Glo® Luminescent Cell Viability Assay (Promega G7571). Cells were plated in 96-well opaque Costar plates (Cat number 136101). In brief, 500-2500 cells in 90 μL media were added to each well in quadruplicate and allowed to adhere for 16 hours. Anti-NTSR1 (dose range: 0-500 nM), anti-NTSR1-MMAE (dose range: 0-500 nM) or Paclitaxel (dose range: 0-100 nM) were added in […] 72-120 hours, medium was removed, and 200 μL of CellTiter-Glo® viability reagent contain culture medium (1:1) was added to each well and placed on an orbital shaker in the dark for 2 minutes. The plate was allowed to sit at RT for 10 minutes before being read on a GloMax® Explorer Multimode Microplate Reader (GM3500).
(In general: Cellular ATP, detected with luciferase, serves as a proxy for viable cell number.)

The next experiment has as its system Mahlavu. Briefly: In vitro cell cytotoxicity assay (CellTiter-Glo). The format is cell-based. On the procedure: as §5
In another experiment the test system is H1299. Briefly: In vitro cell cytotoxicity assay (CellTiter-Glo). It counts as cell-based. The procedure: as §5
The test system of another experiment is HA22T. Put plainly: In vitro cell cytotoxicity assay (CellTiter-Glo). The format is cell-based. On the procedure: as §5
The next experiment deals with HA22T-Luc. Put plainly: In vitro cell cytotoxicity assay (CellTiter-Glo). The format is cell-based. On the procedure:
as §5

The subject of a further experiment is PC-3. Put plainly: In vitro cell cytotoxicity assay (CellTiter-Glo). The format is cell-based. On the procedure: as §5
Experiment [3] has as its target T1, NTSR1 ECL2 peptide. Briefly: Koff (s^-1). The procedure:
as §1
Head of the field: Koff (s^-1)
as §2, §3, §4

The test system of experiment [4] is NTSR1-expressing A549 cancer cells. Briefly: Internalization of h7C3-3 or h7C3-3-ADC in A549 cells (flow cytometry). The format is cell-based. The note with it: A549, 1 μg/ml, 37° C. for 90 minutes. The procedure: A total of 1×10^6 cells were reacted with the indicated antibody or ADC in 100 μL of FACS buffer for 60 minutes at 4° C. and washed to remove excess antibody or ADC. Cells were then transferred to 4° C. or 37° C. for 90 minutes. To determine the relative number of h7C3-3 or h7C3-3-ADC on the cell surface, cells were stained with saturating amounts of FITC (BD Pharmingen™) conjugated mouse anti-human IgG antibodies and incubated for additional 60 minutes on ice. Cells were washed again and followed by an additional incubation with 1 ml PBS containing 0.5 mg/mL propidium iodide at 4° C. for 10 minutes. Data were collected on 10,000 living cells by FACS (Bio-Red S3e cell sorter). Fluorescence intensity from channel FL-1 was calculated with Flow Jo flow cytometry analysis software. Preparation of anti-NTSR1 antibody-drug conjugates (ADCs)

Experiment [5] deals with cyclic ECL2 peptide of NTSR1. Briefly: NTSR1-binding affinity ELISA (alanine scanning variants). The note with it: h7C3-2 variants. The arrangement: species or system human. The procedure: The NTSR1-binding capacity of different antibodies were measured by ELISA. Briefly, NeutrAvidin 96-well plates (Pierce Cat:15128) were coated with cyL2-Biotin peptides at a final concentration of 5 μg/ml at […]. On the following day, the coating solution was removed, and the plates were blocked with 5% (v/v) non-fat dry milk in phosphate buffer saline (PBS) for 1 hour. After washing with PBST, gradient concentrations of anti-NTSR1 antibodies were added in triplicate. After 1 hour of incubation, the plate was washed three times with PBST, followed by the addition of horseradish peroxidase (HRP)-conjugated goat anti-human IgG Fc antibody (100 μL) into each well for an additional hour at RT. Finally, 100 μL of tetramethylbenzidine (TMB) substrate was added into each well to produce color for visualization. After 2 minutes of incubation, 100 μL of 2M H2SO4 was used to stop the reaction. The absorbance of each well was read at 450 nm with a plate reader. Flow cytometry

Some results are limits rather than exact numbers.

T2 sequence (P30989 whole entry): as above

B1: h7C3-3: 7C3 variant bearing T28A in CDR H1, Y100H in CDR H3 and S97A in CDR L3 (antibody, V domains shown)
VH: QVQLQQPGSVLVRPGASVKLSCKASGYAFTSSWIHWAKQRPGQGLEWIGQIRPNSGNTYYNEKFKVKATLTVDTSSSTAYVDLSSLTSEDSAVYYCARYHYGFDYWGQGTLVTVSS
VL: DVLMTQTPLSLPVSLGDQASISCRSSQSIVHSNGNTYLEWYLQKPGQSPKLLIYKVSNRFSGVPDRFSGSGSGTDFTLKISRVEAEDLGVYYCFQGAHLPWTFGGGTKLEIKR
As usually defined, the Kd is the concentration at which binding is half-saturated. High values mean a looser complex, low ones a tighter complex. A word on the EC50: it is the concentration that produces a half-maximal response. The low end stands for an effect from little substance, the high end for a need for much substance. The term IC50 denotes the concentration that inhibits the measured activity by half. A low value points to inhibition by little substance. In the experiment with NTSR1 ECL2 peptide [1], B1 returned a Kd of 0.3 nM. In addition, in the experiment on A549 cells, the “mean fluorescence intensity (MFI) upon shifting cells from 4° C. to 37° C. (internalization)” value is given as “decreased gradually”. Moreover, the “FACS binding (%, 1 μg/ml)” value with NTSR1 on A549 cells (A549 cells, antibody 1 μg/ml) was 98.7%. The “FACS binding (%, 10 μg/ml)” value in the experiment with NTSR1 on A549 cells (A549 cells, antibody 10 μg/ml) worked out at 100%. In the experiment with NTSR1 on A549 cells (A549 cells, one hour incubation at 4° C.), the “binding on cell surface” value is “have binding efficiency on cell surface”. Also, the “affinity for NTSR1 on A549 cells compared with h7C3-2” value with NTSR1 on A549 cells (FACS, h7C3-2 variant) is recorded as “higher affinity”. The “EC50” value in the experiment with NTSR1 on A549 cells (relative mean fluorescence intensity (MFI) on A549 cells) stood at 1.1 µg/mL. The immunohistochemistry staining entry with NTSR1 was “clustered and more intense”. For the same molecule, the “Kon” value with NTSR1 ECL2 peptide [2] amounted to 441000 M⁻¹ s⁻¹. The IC50 in the experiment with A549, in the experiment on Mahlavu, with H1299, in the experiment with HA22T, with HA22T-Luc and in the experiment with PC-3 was > 500 nM each time. The “Koff” value with NTSR1 ECL2 peptide [3] came to 0.000134 s⁻¹. Besides, in [4], the internalization efficiency result was “internalized efficiently”. The “binding affinity to peptide compared with h7C3-2 (in words)” value in experiment [5] is “higher binding affinity”.

For the origin of these results see patent publication US12710427B2, “Anti-human neurotensin receptor 1 antibody and use thereof” (National Health Research Institutes, priority 2020, dated 2026).
